According to publication PMC11933459 (Nature Communications, 2025):

Legend:
cryo-EM structure [1] = molecular target: the molecule itself; experiment: cryo-EM structure
cryo-EM structure [2] = molecular target: the molecule itself; experiment: cryo-EM structure; remark: listed apart in the source

Row | Protein | stoichiometry N (cryo-EM structure [1]) | binding result (cryo-EM structure [2])
1 | Full-length human XPR1 (wild type), purified, tags removed (natural protein, UniProt Q9UBH6 1-696, looked up) MKFAEHLSAHITPEWRKQYIQYEAFKDMLYSAQDQAPSVEVTDEDTVKRYFAKFEEKFFQTCEKELAKINTFYSEKLAEAQRRFATLQNELQSSLDAQKESTGVTTLRQRRKPVFHLSHEERVQHRNIKDLKLAFSEFYLSLILLQNYQNLNFTGFRKILKKHDKILETSRGADWRVAHVEVAPFYTCKKINQLISETEAVVTNELEDGDRQKAMKRLRVPPLGAAQPAPAWTTFRVGLFCGIFIVLNITLVLAAVFKLETDRSIWPLIRIYRGGFLLIEFLFLLGINTYGWRQAGVNHVLIFELNPRSNLSHQHLFEIAGFLGILWCLSLLACFFAPISVIPTYVYPLALYGFMVFFLINPTKTFYYKSRFWLLKLLFRVFTAPFHKVGFADFWLADQLNSLSVILMDLEYMICFYSLELKWDESKGLLPNNSEESGICHKYTYGVRAIVQCIPAWLRFIQCLRRYRDTKRAFPHLVNAGKYSTTFFMVTFAALYSTHKERGHSDTMVFFYLWIVFYIISSCYTLIWDLKMDWGLFDKNAGENTFLREEIVYPQKAYYYCAIIEDVILRFAWTIQISITSTTLLPHSGDIIATVFAPLEVFRRFVWNFFRLENEHLNNCGEFRAVRDISVAPLNADDQTLLEQMMDQDDGVRNRQKNRSWKYNQSISLRRPRLASQSKARDTKVLIEDTDDEANT | 2 | 
2 | XPR1-E622A/F623A mutant (full-length human XPR1), purified, tags removed (natural protein, UniProt Q9UBH6 1-696, looked up) MKFAEHLSAHITPEWRKQYIQYEAFKDMLYSAQDQAPSVEVTDEDTVKRYFAKFEEKFFQTCEKELAKINTFYSEKLAEAQRRFATLQNELQSSLDAQKESTGVTTLRQRRKPVFHLSHEERVQHRNIKDLKLAFSEFYLSLILLQNYQNLNFTGFRKILKKHDKILETSRGADWRVAHVEVAPFYTCKKINQLISETEAVVTNELEDGDRQKAMKRLRVPPLGAAQPAPAWTTFRVGLFCGIFIVLNITLVLAAVFKLETDRSIWPLIRIYRGGFLLIEFLFLLGINTYGWRQAGVNHVLIFELNPRSNLSHQHLFEIAGFLGILWCLSLLACFFAPISVIPTYVYPLALYGFMVFFLINPTKTFYYKSRFWLLKLLFRVFTAPFHKVGFADFWLADQLNSLSVILMDLEYMICFYSLELKWDESKGLLPNNSEESGICHKYTYGVRAIVQCIPAWLRFIQCLRRYRDTKRAFPHLVNAGKYSTTFFMVTFAALYSTHKERGHSDTMVFFYLWIVFYIISSCYTLIWDLKMDWGLFDKNAGENTFLREEIVYPQKAYYYCAIIEDVILRFAWTIQISITSTTLLPHSGDIIATVFAPLEVFRRFVWNFFRLENEHLNNCGAARAVRDISVAPLNADDQTLLEQMMDQDDGVRNRQKNRSWKYNQSISLRRPRLASQSKARDTKVLIEDTDDEANT |  | binds
